In US20190315864A1 (SUZHOU ALPHAMAB, published 2019):

What was measured:
CTLA4-Fc fusion protein [1] = molecular target: T1, CTLA4-Fc fusion protein (human, biotinylated where used as CTLA4-Fc-Biotin (Examples 5.1-5.3)); experiment: ELISA, CTLA4-Fc coated, 10 ng VHH/well
T1 construct: expressed in HEK293 cells; also called human CTLA4-Fc protein; CTLA4-Fc antigen protein
Protocol: (§1) Plates were coated with CTLA4-Fc fusion protein overnight at 4° C. and 10 ng of the heavy chain single-domain antibody obtained in Example 2.1 (the control was a single domain antibody not binding to the CTLA4-Fc protein) was added to each well and allowed to react for 1 hour at room temperature. After washing, primary antibody anti-His tag antibody (purchased from Beijing Kangwei Century Biotechnology Co., Ltd.) was added and reacted for 1 hour at room temperature. After washing, a secondary goat anti-mouse horseradish peroxidase-labeled antibody (Yiqiao Shenzhou, Cat: SSA007200) was added and reacted for 1 hour at room temperature. After washing, chromogenic agent was added and the absorbance was read at 405 nm.

Fc protein = molecular target: T2, Fc protein; experiment: ELISA, Fc protein coated, 10 ng VHH/well
T2 construct: Counter-screen for the Fc part of CTLA4-Fc
Protocol: (§2) Plates were coated with Fc protein overnight at 4° C. and 10 ng of the heavy chain single domain antibody obtained in Example 2.1 was added to each well (control was a single domain antibody against other unrelated targets) and allowed to react for 1 hour at room temperature. After washing, an rabbit anti-human Fc antibody (purchased from Shanghai Pu Xin Biotechnology Co., Ltd.) was added and reacted for 1 hour at room temperature. After washing, goat anti-rabbit horseradish peroxidase labeled antibody (purchased from Shanghai Pu Xin Biotechnology Co., Ltd.) was added and reacted at room temperature for 1 hour. After washing, chromogenic agent was added and the absorbance was read at 405 nm.

CTLA4-Fc fusion protein [2] = molecular target: T1, CTLA4-Fc fusion protein; experiment: ELISA OD ratio, value equals OD(CTLA4)/OD(Fc)
Protocol: as §1, §2

CTLA4-Fc fusion protein [3] = molecular target: T1, CTLA4-Fc fusion protein; experiment: ELISA OD ratio, value equals OD(CTLA4)/OD(blank)
Protocol: as §1

CTLA4-Fc fusion protein [4] = molecular target: T1, CTLA4-Fc fusion protein; experiment: competitive ELISA: CD80-Fc-Biotin signal on coated CTLA4-Fc with 500 ng VHH/well; competitor CD80-Fc-Biotin
Protocol: SA-HRP (purchased from Sigma) was added and allowed to react for 1 hour at room temperature. After adding chromogenic solution, absorbance was read at 405 nm wavelength.

Binder	OD (against CTLA4) (CTLA4-Fc fusion protein [1])	OD (against Fc) (Fc protein)	ODa/OD blank (CTLA4-Fc fusion protein [2])	ODa/ODb (CTLA4-Fc fusion protein [3])	OD (CTLA4-Fc fusion protein [4])
CTLA4 heavy chain single domain antibody No. J35 (VHH, Camel VHH expressed in E. coli (PET32b), nickel-purified) VHH: QVQLQESGGGSVQAGGSLRLSCAASGYTSGYYVMGWYRQAPGKLREFVSSIDSNGGTMYADSVKGRFTISQDNAKNTAHLQMNSLKPEDTAMYYCKRDSPGNFYWGQGTQVTVSS	0.823 OD405	0.036 OD405	22.9	29.4	2.57 OD405
CTLA4 heavy chain single domain antibody No. C29 (VHH, Camel VHH expressed in E. coli (PET32b), nickel-purified) VHH: QVQLQESGGGSVQAGGSLRLSCAVSGYTYSGYCMGWFRQAPGKEREGVAAISRGDGSPGYADSVKGRFTISQDNAKNTLYLQMNSLKPEDTAMYYCAADVIPTETCSYGSWSGPNGYWGQGTQVTVSS	1.51 OD405	0.085 OD405	17.8	54	2.43 OD405
CTLA4 heavy chain single domain antibody No. C16 (VHH, Camel VHH expressed in E. coli (PET32b), nickel-purified) VHH: QVQLQESGGGSVQAGGSLTLSCAASGYTGDLVAWFRQTPGKEREGVAAISRTGLTTYYADSVKGRFTISQDTAKNTGYLQMNSMKPEDTAMYYCVAGWHVGGTWYKTSSYDYWGQGTQVTVSS	1.79 OD405	0.053 OD405	33.7	63.8	1.89 OD405
CTLA4 heavy chain single domain antibody No. 128 (VHH, Camel VHH expressed in E. coli (PET32b), nickel-purified) VHH: QVQLQESGGGSVQAGGSLKLSCAASGYTDYTYNTSCMGWFRQTPGKERERVATVNKVGSTIYADSVKGRFTISKDNVKNTLYLQMNSLKPEDTAMYYCAARGSWSCSQFWGDFGYWGQGTQVTVSS	1.27 OD405	0.036 OD405	35.2	45.3	0.893 OD405
CTLA4 heavy chain single domain antibody No. C22 (VHH, Camel VHH expressed in E. coli (PET32b), nickel-purified) VHH: QVQLQESGGGSVQAGGSLRLSCTVSQHTSRYYYMAWFRQAPGKEREGVASIWTGGGTPGYADSAKGRFTISTDNAKNTIYLQMNSLKPEDTAMYYCAADDRGGRWSLGTMAVGGYKYWGQGTQVTVSS	0.848 OD405	0.06 OD405	14.1	30.3	2.47 OD405
CTLA4 heavy chain single domain antibody No. J78 (VHH, Camel VHH expressed in E. coli (PET32b), nickel-purified) VHH: QVQLQESGGGSVQAGGSLRLSCTVSQHTSRYYYMAWFRQAPGKEREGVASIWTGGGTPGYADSAKGRFTISADNAKNTIYLQMNSLKPEDTAMYYCAADDRGGRWSLGTMAVGGYKYWGQGTQVTVSS	0.632 OD405	0.121 OD405	5.2	22.6	2.41 OD405
CTLA4 heavy chain single domain antibody No. J69 (VHH, Camel VHH expressed in E. coli (PET32b), nickel-purified) VHH: QVQLQESGGGLVQPGGSLRLSCAASGFTLSSYSMTWLRQAPGKGLEWVSTINSGGSTSYADSVKGRFAISRDNAKNTLYLQLNSLEIEDTGMYYCQGGLTRGQGTQVTVSS	0.635 OD405	0.037 OD405	17.2	22.7	2.34 OD405
CTLA4 heavy chain single domain antibody No. 116 (VHH, Camel VHH expressed in E. coli (PET32b), nickel-purified) VHH: QVQLQESGGGLVQPGGSLRLSCEASGFTFSSYTMTWLRQAPGKGLEWVSTINSGGSTSYADSVKGRFAISRDNAKNTLYLQLNSLEIEDTGMYYCQGGLTRGQGTQVTVSS	0.234 OD405	0.046 OD405	5.1	8.4	2.58 OD405
CTLA4 heavy chain single domain antibody No. 165 (VHH, Camel VHH expressed in E. coli (PET32b), nickel-purified) VHH: QVQLQESGGGSVQTGGSLRLSCVVSGHSYSRKCMGWFRQAPGKEREEVATFYTGDGRTYYADSVKGRFTISQDNAKNTLYLQMNSLKPEDTGMYFCAADRRVNCDLLQSTFYNYRGQGTQVTVSS	1.21 OD405	0.051 OD405	23.8	43.4	1.84 OD405
CTLA4 heavy chain single domain antibody No. C38 (VHH, Camel VHH expressed in E. coli (PET32b), nickel-purified) VHH: QVQLQESGGGSVQAGGSLRLSCAASRYTASSNCMAWFRQAPGKEREGVATIYNGGGSTAYADSVKGRFTISQDNAKNTVYLQMNSLKPEDTAMYYCGAGSPRFCASATMTGGHHLFGYWGQGTQVTVSS	1.02 OD405	0.045 OD405	22.7	36.5	2.28 OD405
CTLA4 heavy chain single domain antibody No. J37 (VHH, Camel VHH expressed in E. coli (PET32b), nickel-purified) VHH: QVQLQESGGGSVQAGGTLRLSCAVSGVTYSPHCMGWFRQAPGKEREGVAAIYNGGGSTAYADSVKGRFTISQDNAKNTVYLQMNSLKPEDTAMYYCGAGSPRFCASATMTGGHHLFGYWGQGTQVTVSS	1.2 OD405	0.034 OD405	35.3	42.9	1.06 OD405
CTLA4 heavy chain single domain antibody No. J42 (VHH, Camel VHH expressed in E. coli (PET32b), nickel-purified) VHH: QVQLQESGGGSVQAGGSLRLSCAASGYTYSSYNSNCMGWFRQAPGKEREGVAAIDSDGSTSYADSVKGRFTISKDNAKNTLYLQMNSLKPEDTAMYYCAASPRTCEVFSLGGSWHLFGYWGQGTQVTVSS	1.09 OD405	0.045 OD405	24.1	38.8	0.94 OD405
CTLA4 heavy chain single domain antibody No. 119 (VHH, Camel VHH expressed in E. coli (PET32b), nickel-purified) VHH: QVQLQESGGGSVQAGGSLRLSCAASEYTYHTNCMGWFRQAPGKEREGLAVMNPSGGVTYFADSVKGRFTISRDNAKNTVYLQMNSLKPEDTAMYYCAAGRGRCSGYSGYYNEWGQGTQVTVSS	0.537 OD405	0.037 OD405	14.5	19.2	2.53 OD405
CTLA4 heavy chain single domain antibody No. J39 (VHH, Camel VHH expressed in E. coli (PET32b), nickel-purified) VHH: QVQLQESGGGSVQAGGSLRLSCAPSRYSGALMGWFRQAPGKEREGVAVISRSGLTTYYADSVKGRFTISQDTAKNTIYLQMNSMKPEDTAMYYCVAAPEARAWSSRDPTGYNYWGQGTQVTVSS	1.75 OD405	0.042 OD405	41.6	62.4	2.13 OD405
CTLA4 heavy chain single domain antibody No. C2 (VHH, Camel VHH expressed in E. coli (PET32b), nickel-purified) VHH: QVQLQESGGGSVQPGGSLRLSCAVSGFTFSGYCMAWVRQAPGKGLEWVASIHRRDGSTDYADSVKGRFTISKDNSKNTLYLQMSSLKPEDTAVYYCAADPARLSCSGRVNSEYKYRGQGTQVTVSS	1.23 OD405	0.035 OD405	35.2	44	2.52 OD405
CTLA4 heavy chain single domain antibody No. J17 (VHH, Camel VHH expressed in E. coli (PET32b), nickel-purified) VHH: QVQLQESGGGSVQAGGSLRLSCAASGFTLSSYTMTWLRQAPGKGLEWVSTINSGGSTSYADSVKGRFAISRDNAKNILYLQLNSLEIEDTGMYYCQGGLTQRGQGTQVTVSS	1.4 OD405	0.046 OD405	30.4	50	2.53 OD405
CTLA4 heavy chain single domain antibody No. J29 (VHH, Camel VHH expressed in E. coli (PET32b), nickel-purified) VHH: QVQLQESGGGLVQPGGSLRLSCAASGFTISSYTMTWLHQAPGKGLEWVSTINSGGSTAYADSVKGRFAISRDNAKNTLYLQLNSLKIEDTGMYYCQGGLTQRGQGTQVTVSS	1.44 OD405	0.036 OD405	40	51.4	2.5 OD405
CTLA4 heavy chain single domain antibody No. 138 (VHH, Camel VHH expressed in E. coli (PET32b), nickel-purified) VHH: QVQLQESGGGSVQAGGSLTLSCAASGYANSNTCMGWFRQAPGKERERVAAISGVGTGTYYADSVKGRFTISRDNGKNTLFLQMNSLKPEDTAMYYCAAAPEGRAWCSRDPSGYNYWGQGTQVTVSS	1.84 OD405	0.041 OD405	45	65.8	1.92 OD405
